Laboratory results published in PMC6555819, “Comprehensive study of nuclear receptor DNA binding provides a revised framework for understanding receptor specificity”.
Substitutions are numbered along the chain they refer to.

Molecular target: RXRa (Homo sapiens, UniProt P19793)
Test: no ligand; PBM; 180 nM; PBS pH 7.4, 2% milk, 0.02% Triton X-100, 1 mM DTT, BSA, 0.4 mg/ml salmon testes DNA
Settings: tags: His cleaved; chain copies: 2; label: surface-attached array probe

RXRa, sequence (P19793 whole entry): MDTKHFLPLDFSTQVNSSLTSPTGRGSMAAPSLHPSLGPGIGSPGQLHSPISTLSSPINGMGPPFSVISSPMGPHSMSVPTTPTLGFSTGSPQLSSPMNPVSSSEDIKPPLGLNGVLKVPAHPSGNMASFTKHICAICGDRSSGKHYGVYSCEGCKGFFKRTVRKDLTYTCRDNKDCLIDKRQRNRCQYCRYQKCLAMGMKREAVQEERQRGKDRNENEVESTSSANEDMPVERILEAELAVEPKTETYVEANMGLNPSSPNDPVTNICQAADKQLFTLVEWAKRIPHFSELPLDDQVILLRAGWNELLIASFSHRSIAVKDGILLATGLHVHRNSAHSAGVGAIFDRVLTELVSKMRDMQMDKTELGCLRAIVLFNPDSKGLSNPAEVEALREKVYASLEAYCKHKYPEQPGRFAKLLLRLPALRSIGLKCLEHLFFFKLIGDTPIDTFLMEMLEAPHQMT

B1: NRC3_wobSeed73_DR3_T21G_o1 (dsDNA)
DNA 1: GCCAAACTAGGTCACAGAGGGCAAAGTCCGTGCGTAGCGATTGACAGCGTAGAATGAAGG
DNA 2: CCTTCATTCTACGCTGTCAATCGCTACGCACGGACTTTGCCCTCTGTGACCTAGTTTGGC
binding signal: 4.01 PBM z-score against 500 random probes

B2: NRC3_wobSeed73_DR3_T21A_o1 (dsDNA)
DNA 1: B1 DNA 1 with G21A
DNA 2: B1 DNA 2 with C40T
binding signal: 3.55 PBM z-score against 500 random probes

B3: NRC3_wobSeed101_DR4_G20T_o1 (dsDNA)
DNA 1: GCCCTTACGGGTCACTCCATGTTATAGCATCGGAGTGCGATTGACAGCGTAGAATGAAGG
DNA 2: CCTTCATTCTACGCTGTCAATCGCACTCCGATGCTATAACATGGAGTGACCCGTAAGGGC
binding signal: 4.24 PBM z-score against 500 random probes

B4: NRC3_wobSeed99_DR4_G10T_o1 (dsDNA)
DNA 1: GCTCTCGGATGACACGAAAGGTCAGAGCTCGACATCGCGATTGACAGCGTAGAATGAAGG
DNA 2: CCTTCATTCTACGCTGTCAATCGCGATGTCGAGCTCTGACCTTTCGTGTCATCCGAGAGC
binding signal: 4.05 PBM z-score against 500 random probes

B5: NRC3_wobSeed21_DR0_T18C_o1 (dsDNA)
DNA 1: GCCGTCAAAGTTCAAGGCAACGTAACAGAAAGCAGCGCGATTGACAGCGTAGAATGAAGG
DNA 2: CCTTCATTCTACGCTGTCAATCGCGCTGCTTTCTGTTACGTTGCCTTGAACTTTGACGGC
binding signal: 3.96 PBM z-score against 500 random probes

B6: NRC3_wobSeed17_DR0_G16C_o1 (dsDNA)
DNA 1: GCATATGTAGGTTAGCGTCATTCAGAAAGTAGGGAAGCGATTGACAGCGTAGAATGAAGG
DNA 2: CCTTCATTCTACGCTGTCAATCGCTTCCCTACTTTCTGAATGACGCTAACCTACATATGC
binding signal: 0.46 PBM z-score against 500 random probes

B7: NRC3_wobSeed136_DR5_G21C_o1 (dsDNA)
DNA 1: GCTAGCCTAGGTCATTCAGGCGCCAGTATAGAAAGCGCGATTGACAGCGTAGAATGAAGG
DNA 2: CCTTCATTCTACGCTGTCAATCGCGCTTTCTATACTGGCGCCTGAATGACCTAGGCTAGC
binding signal: 3 PBM z-score against 500 random probes

B8: NRC3_wobSeed65_DR2_T8C_o1 (dsDNA)
DNA 1: GCATATGCAGGTTATCGGGTCATTCAGTTTGCGCATGCGATTGACAGCGTAGAATGAAGG
DNA 2: CCTTCATTCTACGCTGTCAATCGCATGCGCAAACTGAATGACCCGATAACCTGCATATGC
binding signal: 3.65 PBM z-score against 500 random probes

B9: NRC3_wobSeed65_DR2_A9G_o1 (dsDNA)
DNA 1: B8 DNA 1 with C8T, A9G
DNA 2: B8 DNA 2 with T52C, G53A
binding signal: 3.44 PBM z-score against 500 random probes

B10: NRC3_wobSeed137_DR5_A16G_o1 (dsDNA)
DNA 1: GCATATGTAGGTTACGTCCGGGTCATTCAGGCTATGGCGATTGACAGCGTAGAATGAAGG
DNA 2: CCTTCATTCTACGCTGTCAATCGCCATAGCCTGAATGACCCGGACGTAACCTACATATGC
binding signal: 3.33 PBM z-score against 500 random probes

B11: NRC3_wobSeed32_DR1_C4A_o1 (dsDNA)
DNA 1: GCTATTGTAGATCAAAGGTTAAGAAAGCCGAAGCCTGCGATTGACAGCGTAGAATGAAGG
DNA 2: CCTTCATTCTACGCTGTCAATCGCAGGCTTCGGCTTTCTTAACCTTTGATCTACAATAGC
binding signal: 3.28 PBM z-score against 500 random probes

B12: NRC3_wobSeed4_DR0_T8G_o1 (dsDNA)
DNA 1: GCCCTACGGGGCCAAGGTCATTGATCAGTCAAAGCAGCGATTGACAGCGTAGAATGAAGG
DNA 2: CCTTCATTCTACGCTGTCAATCGCTGCTTTGACTGATCAATGACCTTGGCCCCGTAGGGC
binding signal: 3.5 PBM z-score against 500 random probes

B13: NRC3_wobSeed124_DR5_T16A_o1 (dsDNA)
DNA 1: GCCCTACTGGGCCATACAGAGGTCATTGATCATATGGCGATTGACAGCGTAGAATGAAGG
DNA 2: CCTTCATTCTACGCTGTCAATCGCCATATGATCAATGACCTCTGTATGGCCCAGTAGGGC
binding signal: 4.2 PBM z-score against 500 random probes

B14: NRC3_wobSeed124_DR5_T5C_o1 (dsDNA)
DNA 1: B13 DNA 1 with T5C, A16T
DNA 2: B13 DNA 2 with T45A, A56G
binding signal: 3.75 PBM z-score against 500 random probes

B15: NRC3_wobSeed124_DR5_C24T_o1 (dsDNA)
DNA 1: B13 DNA 1 with A16T, C24T
DNA 2: B13 DNA 2 with G37A, T45A
binding signal: 0.48 PBM z-score against 500 random probes

B16: NRC3_wobSeed124_DR5_A6T_o1 (dsDNA)
DNA 1: B13 DNA 1 with A6T, A16T
DNA 2: B13 DNA 2 with T45A, T55A
binding signal: 3.71 PBM z-score against 500 random probes

B17: NRC3_wobSeed124_DR5_G10T_o1 (dsDNA)
DNA 1: B13 DNA 1 with G10T, A16T
DNA 2: B13 DNA 2 with T45A, C51A
binding signal: 3.59 PBM z-score against 500 random probes

B18: NRC3_wobSeed88_DR3_T15A_o1 (dsDNA)
DNA 1: GCTAGCCTAGGTCAAGCGGGCCAGTATAGTGTCGGCGCGATTGACAGCGTAGAATGAAGG
DNA 2: CCTTCATTCTACGCTGTCAATCGCGCCGACACTATACTGGCCCGCTTGACCTAGGCTAGC
binding signal: 3.14 PBM z-score against 500 random probes

B19: NRC3_wobSeed74_DR3_A14G_o1 (dsDNA)
DNA 1: GCTCTAGTTGGTCGCGGAGGTCACACACGACGGGTAGCGATTGACAGCGTAGAATGAAGG
DNA 2: CCTTCATTCTACGCTGTCAATCGCTACCCGTCGTGTGTGACCTCCGCGACCAACTAGAGC
binding signal: 4.16 PBM z-score against 500 random probes

B20: NRC3_wobSeed98_DR4_o1 (dsDNA)
DNA 1: GCACTAGTTGGTCAGCTGAGGTCACACACAATTCGGGCGATTGACAGCGTAGAATGAAGG
DNA 2: CCTTCATTCTACGCTGTCAATCGCCCGAATTGTGTGTGACCTCAGCTGACCAACTAGTGC
binding signal: 4.42 PBM z-score against 500 random probes

B21: NRC3_wobSeed98_DR4_G15C_o1 (dsDNA)
DNA 1: B20 DNA 1 with G15C
DNA 2: B20 DNA 2 with C46G
binding signal: 4.28 PBM z-score against 500 random probes

B22: NRC3_wobSeed34_DR1_G10A_o1 (dsDNA)
DNA 1: GCATCGAAAAGTCGAAGGTGAGTATACCCACCCGAAGCGATTGACAGCGTAGAATGAAGG
DNA 2: CCTTCATTCTACGCTGTCAATCGCTTCGGGTGGGTATACTCACCTTCGACTTTTCGATGC
binding signal: 0.45 PBM z-score against 500 random probes

B23: NRC3_wobSeed64_DR2_T16A_o1 (dsDNA)
DNA 1: GCTAGCCTAGGTCATAGGGCCAGTATAGTACGCATCGCGATTGACAGCGTAGAATGAAGG
DNA 2: CCTTCATTCTACGCTGTCAATCGCGATGCGTACTATACTGGCCCTATGACCTAGGCTAGC
binding signal: 3.11 PBM z-score against 500 random probes

B24: NRC3_wobSeed63_DR2_G19A_o1 (dsDNA)
DNA 1: GCCGAACTAGGTCACCAGAACAGTGAAGAGGTTGGAGCGATTGACAGCGTAGAATGAAGG
DNA 2: CCTTCATTCTACGCTGTCAATCGCTCCAACCTCTTCACTGTTCTGGTGACCTAGTTCGGC
binding signal: 3.24 PBM z-score against 500 random probes

B25: NRC3_wobSeed69_DR2_G10A_o1 (dsDNA)
DNA 1: GCAGTCAAAATTCACTAGGTAACGTAAGATTCAGCTGCGATTGACAGCGTAGAATGAAGG
DNA 2: CCTTCATTCTACGCTGTCAATCGCAGCTGAATCTTACGTTACCTAGTGAATTTTGACTGC
binding signal: 0.46 PBM z-score against 500 random probes

B26: NRC3_wobSeed82_DR3_A28G_o1 (dsDNA)
DNA 1: GCATCGAAAGGTCGACGAGGTGAGTATGCACCGTTTGCGATTGACAGCGTAGAATGAAGG
DNA 2: CCTTCATTCTACGCTGTCAATCGCAAACGGTGCATACTCACCTCGTCGACCTTTCGATGC
binding signal: 4.34 PBM z-score against 500 random probes

B27: NRC3_wobSeed6_DR0_A6G_o1 (dsDNA)
DNA 1: GCCCTGGCAGGCCAGGGTCACTCAAGCATTTCGCTTGCGATTGACAGCGTAGAATGAAGG
DNA 2: CCTTCATTCTACGCTGTCAATCGCAAGCGAAATGCTTGAGTGACCCTGGCCTGCCAGGGC
binding signal: 3.39 PBM z-score against 500 random probes

B28: NRC3_wobSeed6_DR0_C13G_o1 (dsDNA)
DNA 1: B27 DNA 1 with G6A, C13G
DNA 2: B27 DNA 2 with G48C, C55T
binding signal: 3.19 PBM z-score against 500 random probes

B29: NRC3_wobSeed46_DR1_T22G_o1 (dsDNA)
DNA 1: GCTTACCAAGGTGAAAGGTCGGTGATGCACGCCTTGGCGATTGACAGCGTAGAATGAAGG
DNA 2: CCTTCATTCTACGCTGTCAATCGCCAAGGCGTGCATCACCGACCTTTCACCTTGGTAAGC
binding signal: 3.86 PBM z-score against 500 random probes

B30: NRC3_wobSeed36_DR1_A26G_o1 (dsDNA)
DNA 1: GCCCGACTGGGGCAAAGGTTACCATGCTCAGTACGAGCGATTGACAGCGTAGAATGAAGG
DNA 2: CCTTCATTCTACGCTGTCAATCGCTCGTACTGAGCATGGTAACCTTTGCCCCAGTCGGGC
binding signal: 3.81 PBM z-score against 500 random probes

B31: NRC3_wobSeed134_DR5_o1 (dsDNA)
DNA 1: GCGCTGCTAGGTCAACTGATGGTCAGCTAAAGCTCGGCGATTGACAGCGTAGAATGAAGG
DNA 2: CCTTCATTCTACGCTGTCAATCGCCGAGCTTTAGCTGACCATCAGTTGACCTAGCAGCGC
binding signal: 3.07 PBM z-score against 500 random probes

B32: NRC3_wobSeed134_DR5_C13T_o1 (dsDNA)
DNA 1: B31 DNA 1 with C13T
DNA 2: B31 DNA 2 with G48A
binding signal: 0.49 PBM z-score against 500 random probes

B33: NRC3_wobSeed30_DR1_C4G_o1 (dsDNA)
DNA 1: GCAGTAGCAGGCCAAGGGTCACTCAAGATTAGTCCGGCGATTGACAGCGTAGAATGAAGG
DNA 2: CCTTCATTCTACGCTGTCAATCGCCGGACTAATCTTGAGTGACCCTTGGCCTGCTACTGC
binding signal: 4.38 PBM z-score against 500 random probes

B34: NRC3_wobSeed50_DR2_T12G_o1 (dsDNA)
DNA 1: GCCCTAGTTGGGCAGGAGGTCACACACCGGATATGAGCGATTGACAGCGTAGAATGAAGG
DNA 2: CCTTCATTCTACGCTGTCAATCGCTCATATCCGGTGTGTGACCTCCTGCCCAACTAGGGC
binding signal: 3.92 PBM z-score against 500 random probes
